{"source": "patent US20070141059A1", "about": "“Use of cathepsin s inhibitors for treating an immune response caused by administration of a small molecule therapeutic or biologic” (AXYS Pharmaceuticals, Inc., priority 2003, published 2007)", "origin": "cited, not measured here", "molecules": {"B1": {"name": "Betaseron®: biologic; biological agent that induces the production of specific immunoglobulins (protein, UniProt P01574 22-187, looked up, variant C17S)", "Interferon beta": "MSYNLLGFLQRSSNFQSQKLLWQLNGRLEYCLKDRMNFDIPEEIKQLQQFQKEDAALTIYEMLQNIFAIFRQDSSSTGWNETIVENLLANVYHQINHLKTVLEEKLEKEDFTRGKLMSSLHLKRYYGRILHYLKAKEYSHCAWTIVRVEILRNFYFINRLTGYLRN", "modifications": "non-glycosylated, E. coli-expressed", "notes": "biologic; biological agent that induces the production of specific immunoglobulins"}}, "key": {"[1]": {"settings": "patients taking heparin"}}, "data": [{"molecule": "OKT3: murine monoclonal antibody directed towards CD-3 domain of activated T-cells", "values": [{"measurement": "patients producing antibodies versus the therapy", "setting": "in clinical trials", "result": "20-40%"}]}, {"molecule": "Remicade®: biologic; biological agent that induces the production of specific immunoglobulins", "values": [{"measurement": "patients generating neutralizing antibodies", "setting": "patients taking the biologic", "result": 10, "unit": "%"}]}, {"molecule": "heparin", "values": [{"measurement": "patients experiencing heparin induced thrombocytopenia (HIT)", "setting": "[1]", "result": "~3", "unit": "%"}]}, {"molecule": "B1", "values": [{"measurement": "patients found to have serum-neutralizing activity", "setting": "patients taking the biologic", "result": 45, "unit": "%"}]}]}
